Patent US20110009319A1

Tests used:
TGF-b1 = TGF-b1 (UniProt P01137); experiment: cell-based or functional assay
activin-A = activin-A (UniProt P08476); experiment: cell-based or functional assay
activin-A, sequence (P08476 311-426): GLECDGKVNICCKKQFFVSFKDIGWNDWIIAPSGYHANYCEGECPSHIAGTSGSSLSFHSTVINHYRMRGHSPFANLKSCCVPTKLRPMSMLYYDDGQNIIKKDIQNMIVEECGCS

TGF-b1, sequence (P01137 279-390 limits assumed): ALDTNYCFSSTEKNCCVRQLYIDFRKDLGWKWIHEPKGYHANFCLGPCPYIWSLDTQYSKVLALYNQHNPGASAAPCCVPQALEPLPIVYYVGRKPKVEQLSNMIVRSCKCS

- 3TP-lux luciferase expression induced by TGF-b1 in HepG2 cells (fold reduction) (TGF-b1): 4
- FAST2/A3-luciferase induction by 100 pM TGF-b1 in 293T cells (fold reduction) (TGF-b1): 3
- 3TP-lux luciferase expression induced by activin-A in HepG2 cells (fold reduction) (activin-A): 4
Substance: wild type mouse Cripto (from UniProt P51865 18-134) (receptor)
